Assay results: patent CN115246884A (SHANGHAI JUNSHI BIOSCIENCES CO LTD; JUNMENG BIOSCIENCES CO …, dated 2022)
Residue numbers refer to the chain shown, from its start. Values belong to the molecule of their own block, whether it stands above or below them.

Experiments:
[1] = target: MAB-BA-231细胞表面人PD-L1 (human) (UniProt Q9NZQ7); assay: FACS on cells carrying human PD-L1
[2] = target: 人PD-L1重组蛋白 (human) (UniProt Q9NZQ7); assay: Biacore SPR, AHC capture of antibody, PD-L1 as analyte 0.78125-12.5 nM
[3] = target: 生物素化的PD-L1抗原 (UniProt Q9NZQ7); assay: competition ELISA, biotinylated PD-L1 on streptavidin, competitor PD-1 mFc 2.0 μg/mL; ratio = IC50 of chimeric antibody / IC50 of humanised antibody x 100%
[4] = target: His标签人PD-L1抗原 (human) (UniProt Q9NZQ7); assay: ELISA, His-tagged human PD-L1 coated at 2.0 μg/mL; ratio = EC50 of chimeric antibody C1 (chC1) / EC50 of humanised antibody x 100%
[5] = target: CD28重组蛋白 (UniProt P10747 19-152, limits assumed); assay: ELISA on recombinant proteins
[6] = target: T1, B7H4重组蛋白 (UniProt Q7Z7D3 29-258, limits assumed); assay: ELISA on recombinant proteins
T1 sequence (looked up): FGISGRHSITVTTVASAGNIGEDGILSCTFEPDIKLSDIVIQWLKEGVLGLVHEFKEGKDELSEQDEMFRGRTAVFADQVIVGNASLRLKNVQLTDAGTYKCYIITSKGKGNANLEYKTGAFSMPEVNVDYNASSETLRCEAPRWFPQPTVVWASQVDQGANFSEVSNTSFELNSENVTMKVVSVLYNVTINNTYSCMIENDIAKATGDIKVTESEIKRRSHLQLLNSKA

[7] = target: T2, ICOS重组蛋白 (UniProt Q9Y6W8 21-140, limits assumed); assay: ELISA on recombinant proteins
T2 sequence (looked up): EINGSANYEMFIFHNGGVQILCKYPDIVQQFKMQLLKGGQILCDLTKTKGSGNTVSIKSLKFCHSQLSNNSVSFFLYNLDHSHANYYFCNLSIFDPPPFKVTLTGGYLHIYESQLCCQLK

[8] = target: T3, PD-1重组蛋白 (UniProt Q15116 25-167, limits assumed); assay: ELISA on recombinant proteins
T3 construct: also called 受体PD-1

[9] = target: T4, CTLA4重组蛋白 (UniProt P16410 36-161, limits assumed); assay: ELISA on recombinant proteins
T4 sequence (looked up): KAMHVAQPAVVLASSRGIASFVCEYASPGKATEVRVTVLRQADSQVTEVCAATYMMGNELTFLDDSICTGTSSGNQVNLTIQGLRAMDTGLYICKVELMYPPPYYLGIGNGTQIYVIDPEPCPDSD

[10] = target: T5, B7H3重组蛋白 (UniProt Q5ZPR3 29-461, limits assumed); assay: ELISA on recombinant proteins
T5 sequence (looked up): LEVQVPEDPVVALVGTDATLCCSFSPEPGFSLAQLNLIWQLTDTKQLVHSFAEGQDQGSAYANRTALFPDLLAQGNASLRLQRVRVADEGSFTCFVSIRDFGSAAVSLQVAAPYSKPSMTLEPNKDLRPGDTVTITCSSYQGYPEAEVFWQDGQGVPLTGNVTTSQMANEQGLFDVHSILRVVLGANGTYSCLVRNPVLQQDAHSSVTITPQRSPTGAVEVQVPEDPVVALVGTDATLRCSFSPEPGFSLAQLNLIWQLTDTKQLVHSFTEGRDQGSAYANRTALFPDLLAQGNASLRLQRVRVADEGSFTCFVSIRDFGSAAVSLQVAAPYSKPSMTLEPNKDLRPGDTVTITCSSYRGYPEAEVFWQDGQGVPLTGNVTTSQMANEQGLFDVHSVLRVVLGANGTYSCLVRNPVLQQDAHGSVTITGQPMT

[11] = target: T6, 人PD-L1重组蛋白 (human, UniProt Q9NZQ7 19-238); assay: ELISA, inhibition of recombinant human PD-L1 binding to PD-1
T6 construct: also called 重组人PD-L1; 液相中游离PD-L1

[12] = target: T6, 人PD-L1重组蛋白; assay: Biacore SPR, AHC capture of antibody, PD-L1 as analyte 0.78125-12.5 nM
[13] = target: T7, MAB-BA-231细胞表面人PD-L1 (human, UniProt Q9NZQ7 19-290); assay: FACS on MAB-BA-231 cells carrying human PD-L1
T7 construct: whole, on cells; also called 人PD-L1高表达细胞株(MBA-MA-231)
T7 sequence (Q9NZQ7 19-290): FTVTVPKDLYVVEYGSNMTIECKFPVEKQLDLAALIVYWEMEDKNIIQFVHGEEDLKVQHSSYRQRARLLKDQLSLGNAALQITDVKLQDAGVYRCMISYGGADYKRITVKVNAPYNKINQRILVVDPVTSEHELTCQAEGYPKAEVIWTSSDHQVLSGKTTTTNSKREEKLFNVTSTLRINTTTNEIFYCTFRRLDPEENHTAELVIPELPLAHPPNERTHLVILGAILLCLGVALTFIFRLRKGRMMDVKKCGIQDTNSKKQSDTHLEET

T6 sequence (Q9NZQ7 19-238 limits assumed): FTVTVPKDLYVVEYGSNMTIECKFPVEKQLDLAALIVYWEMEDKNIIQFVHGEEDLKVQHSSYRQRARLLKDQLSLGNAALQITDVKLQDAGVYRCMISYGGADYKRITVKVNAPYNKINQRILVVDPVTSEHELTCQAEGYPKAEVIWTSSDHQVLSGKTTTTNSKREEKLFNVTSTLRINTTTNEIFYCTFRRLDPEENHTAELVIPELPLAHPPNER
T3 sequence (Q15116 25-167 limits assumed): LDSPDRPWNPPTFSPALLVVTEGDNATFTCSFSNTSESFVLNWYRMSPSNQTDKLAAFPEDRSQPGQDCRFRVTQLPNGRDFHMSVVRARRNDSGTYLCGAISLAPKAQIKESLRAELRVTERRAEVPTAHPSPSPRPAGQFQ
CD28重组蛋白, sequence (P10747 19-152 limits assumed): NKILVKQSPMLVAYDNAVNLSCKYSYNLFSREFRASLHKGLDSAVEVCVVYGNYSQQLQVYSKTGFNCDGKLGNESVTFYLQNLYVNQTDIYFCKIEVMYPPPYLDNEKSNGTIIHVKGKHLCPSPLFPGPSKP

EC50 [1]: 8.8 ng/mL
Ka [2]: 2.47e+09 M⁻¹
Kd [2]: 0.405 nM
Molecule: 对照抗体KN035 (Envafolimab) (Fc fusion)

相对竞争抑制活性，% [3]: 53.4%
相对结合活性，% [4]: 45.5%
B1: 人源化抗PD-L1单域抗体C1-hu1 (Fc fusion, not shown: a dimerising Fc or GST)
heavy: EVQLLESGGGLVQPGGSLRLSCAASGAAPCMAWFRQAPGKGLEGVSASVRGGLSPYYADVKGRFTISHDIPKNTMYLQMNSLRAEDTAVYYCAARATFYRCEGDASSYTYWGQGTLVTVSS

相对竞争抑制活性，% [3]: 89.1%
相对结合活性，% [4]: 81.3%
B2: 人源化抗PD-L1单域抗体C1-hu11 (Fc fusion, not shown: a dimerising Fc or GST)
heavy: B1 heavy with L5V, L42R, S46A

相对竞争抑制活性，% [3]: 73.3%
相对结合活性，% [4]: 56.5%
B3: 人源化抗PD-L1单域抗体C1-hu2 (Fc fusion, not shown: a dimerising Fc or GST)
heavy: B1 heavy with M75L

相对竞争抑制活性，% [3]: 107%
相对结合活性，% [4]: 76.6%
B4: 人源化抗PD-L1单域抗体C1-hu16 (Fc fusion, not shown: a dimerising Fc or GST)
heavy: B1 heavy with L5V, G41E, L42R, S46A

相对竞争抑制活性，% [3]: 68.1%
B5: 人源化抗PD-L1单域抗体C1-hu15 (Fc fusion, not shown: a dimerising Fc or GST)
heavy: B1 heavy with L5V, G41E, L42R, S46A, I70N, P71S

相对竞争抑制活性，% [3]: 61.7%
相对结合活性，% [4]: 62.5%
B6: 人源化抗PD-L1单域抗体C1-hu5 (Fc fusion, not shown: a dimerising Fc or GST)
heavy: B1 heavy with L5V

binding result [5]: no binding
binding result [6]: no binding
binding result [7]: no binding
binding result [8]: no binding
binding result [9]: no binding
binding result [10]: no binding
IC50 [11]: 590 ng/mL
Ka [12]: 3.16e+09 M⁻¹
Kd [12]: 0.317 nM
koff [12]: 0.000462 s⁻¹
kon [12]: 1.46e+06 M⁻¹ s⁻¹
EC50 [13]: 8.1 ng/mL
B7: 单域嵌合抗体(VHH-hFc)chC1 (Fc fusion)
heavy: QVQLQESGGGSVQTGGSLRLSCAASGAAPCMAWFRQAPGKEREGVAASVRGGLSPYYADSVKGRFTISHDIPKNTMYLQMNSLQPDDTALYYCAARATFYRCEGDASSYTYWGQGTQVTVSS
notes: VHH of C1 cloned upstream of the human IgG1 Fc gene and expressed in 293F cells; also called 嵌合抗体chC1; 嵌合抗体C1; not shown: Fc segment of the human IgG1 heavy chain constant region
